# From the nanobody polyreactivity screen of Harvey et al. (2022)
# Assay: yeast display, Sf9 membrane polyspecificity reagent, FACS + sequencing; frameworks hold sequencing errors
# Method in brief: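 Nanobodies came from a synthetic yeast display library in Saccharomyces cerevisiae BJ5465, induced with galactose for 36–48 hours and stained for 1 hour at 4 °C with 10% biotinylated, detergent-solubilized Sf9 membrane reagent. Cells were enriched on streptavidin microbeads and then FACS-sorted, with low and high (top ~1%) gates set on anti-HA fluorescence for expression and streptavidin fluorescence for reagent binding. Each polyreactivity label reflects the gate a clone came from. Genes were amplified by colony PCR, sequenced by MiSeq 2 × 250 and filtered by CDR length.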
row,Sequence,polyreactivity (PSR sort gate)
1,QVQLVESGGGLVQAGGSLRISCAASGFIFRSYAMGWYRQAPGKERELVAAISRSGGSTYYADSVKGRFTISRDNAKNTVYLQMNSLKPEDTAVYYCATDGGRSTARGYGHWGQGTQVTVSS,high polyreactivity
2,QVQLVESGGGLVQAGGSLRLSCAASGFIFPYNTMGWYRQATAKERELVAAIRYSAGRTYYADSVKGRFTISRDNAKNTVYLQMNSLKPEDTEVYYCNGVSSGDMDYWGQGTQVTVSS,high polyreactivity
3,QVQLVESGGGLVQAGGSLRLSCAASGFTFPDYAMGWYRQAPGKERELVAGISSTGDSTYYADSGKGRYTISRDNAKNTGYLQRNSLKPEETAVYYCNAAQERPSIILFSKYDYWGQGTQETVSS,low polyreactivity
4,QVQLVESGGGLVQAGGSLRLSCAASGRIFRVYAMGWYRPAPGKERELVAAITSGGTTYADSVKGRFTISRDNAKNTVYLQMYSLKPEDTAVYYCAARHAYPYRRGDFNYWGQGTQVTVSS,high polyreactivity
5,QVQIVESGGGLVQAGGSLRLSCAASGRILWDYAMGWYRQATGKEWELVAAIDWSAGSTYYADSVKGRFTISRDTAKNTVYLQMNSLKPEDTAVYYCYIDYTYYYEDDFWGQGTQVTVSS,low polyreactivity
6,QVQLVESGGGLVKAGGSLRLSCAASGFIFVPYAMGWYRQAPGKERELVAAITWSSGGNTYYADSVKGRFTISRDNAKNTVYLQMNSLKPEDTAVYYCAAEWYEAGYWYDYWGQGTQVTVSS,high polyreactivity
7,QVQLVESGGGLVQAGGSLRLSCAASGRTFPYNAMGWYRTAPGKERELVAAISSGGSTNYADSVKGRFTISRDNAKNTVYLQMNSLKPEDTAVYYCAVTGWPRYTWYSYGYWGQGTQVTVSS,low polyreactivity
8,QVQLVESGGGLVQAGGSLRLSCAASVSIFYHYAMGWYRQAPGKESELVAAIDRTGGSTYYADSVKGRFTISRDNAKNTVYLQMNSLKPEDTAVYYCDADWDYADYYGFQYDYWGQGTQVTVSS,low polyreactivity
9,QVQLVESGGGLVQAGGSLRLSCAASGSIFPVYAMGWYRQAPGKERELVATITGSGDSTYADSVKGRFTISRDNAKNTVYLQMNSLKPEDTAVYYCAATTDRAEDDDNIGGYWGQGTQVTVSS,low polyreactivity
10,QGQLVESGGGLVQAGGSLRLSCAASGFIFVPYAMGWYRQAPGKEREFVAAITASGGNTYYADSVKGRFTISRDNAKNTVYLQMNSLKPEYTAVYYCAAEISGSLESLDYWGQGTQVTVSS,low polyreactivity
11,QVQLVESGGGLVQAGGSLRLSCAASGIIFDRYAMGWYRQAPGKERELVAAITYGGGSTYYADSVKGRFTISRDNAKNTVYLQMNSLKPEDTAVYYCAAVSTWFYQYYYWGQGTQVTVSS,high polyreactivity
12,QVQLVESGRGLVQAGGSLRLSCAASGSIFEINAMGWYRQAPGIERELVAAITGSGGSTHYADSVKGRFTISRDNAKNTVSLQMNSLKPEDTAVYYCAAVPRYQYGYWGQGTQVTVSS,low polyreactivity
13,QVQLVESGGGLVQAGGSLRLSCAASGFTFSRNAMGWYRQAPGKERELVAAITWSGGRTYYADSVKGRFTISRDNAKNTVYLQMNSLKPEDTAVYYCAARKYHLRSAYDYWGQGTQVTVSS,low polyreactivity
14,QVQLVESGGGLVQAGGSLRLSCAASGRPFDFYAMGLYRQAPGKERELVADISTGGSTYYADSVKGRFTISRDNAKNTVYLQMNSLKPEDTAVYYCAAVGQDYYKVRYYYWGQGTQVTVSS,low polyreactivity
15,QVQLVESGGGLVQAGGSLRLSCAASGRIFYGNAMGWYRQAPGKVRELVAAISSGTSTNYADSVKGRFTISRDNAKNPVYLQMNSLKPEDTAVYYCAAGSYSRYLYSLYFDFDYWGQGTQVTVSS,low polyreactivity
16,QVQLVESGGGIVQAGGSLRLSCAASGITFVAYDMGGYRQAPGKERELVAAITWNGDRTYYADSVKGRFTISRDNAKNTVYVEMNSLKPEDTAVYDCSAYHYYYEMDYWGQGTQVTVPS,high polyreactivity
17,QVQLGESGGGIVQAGGSLRLSCAASGFIIRYNAMGWYRQAPGKERQFVAAISWGGGRTYYADSVKGRFTISRDNAKNTVYLQMNSLKPEDTAVYFCAAVSPHNRYGYKYDYWGQGTQVTVSS,high polyreactivity
18,QVQLQESGGGMVQAGGSLRLSCAASGSIFADVQMGWYRQAPGKVRELVASINFRGTTTYYADSVKGRFTISRDNAKNTVYLQMSSLKPEDTEVYYCAVGRSEGGDFAYWGQGTHVTVSS,low polyreactivity
19,QVQLVESGGGLVQAGGSLRLSCAASGSIFYSNAMGWYRQAPGKEREFVAAISAGGGSTYYADSVKGRFTISRDHSKNTVYFQMNSLKPEDTAVYYCAKGPLPRAGVKFDYWGQGTQVTVSS,low polyreactivity
20,QVQLVESGGGLVQAGGSLRLSCAASGRIYVTNAMGWYRQAPGKERELVASISSGGRTHYADSVKGRFTISRDNAKNTVYLQMNSLKPEDTAVYYCAKPPLYYYPDLRGEEFYYWGQGTQVTVSS,low polyreactivity
21,QFQLVESGGVLVQAGGSLRLSCAASGSTFNHYAMGWYRQARGKERELVADITKSGASTYADSVKGRFTISRDNAKNSVYLQMNSLKPEDTAVYYCAAGRRNYGTKGRGDYWGQGTQVTVSS,low polyreactivity

row,Sequence,polyreactivity (PSR sort gate)
1,QVQHVESGGGLVQAGGSLRLSCAASGSTFWNKAMGWYRQAPGKEREFVAAITRSTTSTYYADSVKGRFTISRDNAKNTVYLQMNSLKPEDTAVYFCAADTDIVLYDYWGQGTQVTVSS,low polyreactivity
2,QVQLVESGGGLVQAGGSLRLSCAASGRTFWYYAMGWSRQAPGKERELVATITSGGSTYYADSVKGRFTISRDNAKNTVYLQMNSLKPEDTAVYYCAARKYYSRAYDYWGQGTQVTVSS,high polyreactivity
3,QVQLVESGGGLVQAGGSLRLSCAASGSTFPYNTMGWYRQAHGKEREFVAAITGDGGTTYYADSVKGRFTISRDNAKNTVYLQMNSLKPEDTAVYYCAVPYPAEGYGGDYWGQGTQGTVSS,low polyreactivity
4,QVQLVESGGGLVQAGGSLRLSCAASGITFYGYTIGWYRQAPGKERELVATITRGGSTYYADSVKGRFTISLDNAKNTVYLQMNSLKPEDTAGYYCAAESQYDYGVEFDYWGQGTQVTVSS,low polyreactivity
5,QVQLVESGGGLVQAGGSLRLSCAASGSTFSPYAMGWYRQAPGKERELVADISWPGGTTYYADSVKGRFTISRDNAKNTVYLQMNSLKPEDTAVYYCAVTYWDYTFQITYEYWGQGSQVTVSS,low polyreactivity
6,QVQLVESGRGLVQAGGSLRLSCAASGRIFGRNTIGWYRQAPRKEREMVAVISFRGGSTYADSVKGRFTISRDNAKNTVYLQMNSLKPEDTAVYYCARTAYSTRPYRFDYWGQGTQVTVSS,high polyreactivity
7,QVQLVESGGGLVQAGGSLRLSCAASGSTFWPYAMGWYRQAPGKERELVAAITSSGGSTYYADSVKGRFTISRDNAKNTVYLQMNSLKPEETAVYYCAADWSNLGAYDYWGQGTQVTVSS,low polyreactivity
8,QVQLVESGGGLVQAGGSLRLSCAASGSIFADNAMGWYRQAPGKERELVAAITRGGSTYYADSVKGRFTISRDNAKNTVYLQMNSLKPEDTAVYYCAAGTTTYSVNEVPVREGYDYWGQGTQVTVSS,low polyreactivity
9,QVQLVESGGGLVQAGGSLRLSCAASGRTFYDNAMGWDRQAPGKARELVAAITQSGGRTYYADSVKGRFTISRDNAKNTGYLQMNSLKPADTAVYYCAASWPNYLYEYWGQGTQVTVSS,high polyreactivity
10,QVQLVESGGGLVQAGGSLRLSCAASGSTFAGYVMGWSRQAPGKERELVAAISRSGGSTYYADSVKGRFTISRDNAKNTVYLQMNSLKPEDTAVYYCNARYNTQRYRFLVQGDYWGQGTQVTVSS,high polyreactivity
11,QVQLVESGGGLVQAGGSLRLSCAASGSIFYNYAMGWYRQAPGKEREFVAGITRSGGTTSYADSVKGRFTISRDNAKNTVYLQMNSLKPEDTAVYYCAAVVYLQAWYGYWDYYYWGQGTQVTVSS,high polyreactivity
12,QVQLQESSGGLVQAGVCLQQSCAASGSIFTQHPMGRYRQAPANEREFVAAINVGSNTYYADSVKGRITISRDNAKNTVSLQMNILTPEDTAVSYCAATSIRWSVGYFRRDYWGQGTQVTVSS,low polyreactivity
13,QVQLVESGGGLVQAGGSLRLSCAASGSIFGTYAIGWDRQAPGKERELVAAISRGGRTYYADSVKGRFTISRDNAKNTVYLQMNSLKPEDTAVYYCAARTVGLRGYYYWGQGTQVTVSS,high polyreactivity
14,QVQLVESGGGLVQAGGILRLSCAASGRIFYYNTMGWYRQAPGKERELVAAITRGGGRTYYADSVKGRFTISRDNAKNTVYLQMNSLKPEDTAVYYCNTRSTLGYYWGQGTQVTVSS,high polyreactivity
15,QVQLVESGGGLVQAGGSLRLSCAASGSIFDTNAMGWYIQAPGKEREFVGTITNSGGRTYYADSVKGRFTISRDNAKNTVYLQMNSLKPEDTAVYYCNADVHRFSGNGYRYYYWGQGTQVTVSS,low polyreactivity
16,QVQLVESGGGLVQAGGSLRLSCAASGFIFTDNVMGWYRQAPGKERELVAAISRGGGSTYYADSVKGRFTISRDNAKNTDYLQMNSLKPEDTAVYYCAAPTARSRSERDYWGQGTQVTVSS,high polyreactivity
17,QVQLVESGGGLVHAGGSLRLSCAAYGRTFYTYAMGWYSQAPGKVRELVAAISSSGSTYYADSVKGRFTISRDNAKYTVYLQMNSLKPEDTAVYYCNARTSRYRRGGDSWGQGTQVTVSS,high polyreactivity
18,QVQLVESGGGLVQAGGSLRLSCAASGLIFVNAMGWYRQAPGKEREFVAAITYSTGSTYYADSVKGRFTISRDIAKNTVYLQMNSLKPEDTAVYYCAKDRSGHGTERDYWGQGTQVTVSS,low polyreactivity
19,QVQLVESGGGLVQAGGSLRLSCAASGRISFRYAMGWYRPAPGKERELVAAINRGGITNYADSVKGRFTISRDNAKNTVYLQMNSLKPEDTAVYYCAARWRGSGGFDYWGQGTQVTVSS,high polyreactivity
20,QVQIVESGGGLVQAGGSLRLSCAASGSIFTFYAMGWYRQAPGKERELVATINRIGGNTYYADSVKGRFTISRDNAKNTVYLQINSLKPEDTAVYYCAAKPTYRGYGYGSWGQGTQVTVSS,low polyreactivity
